Laboratory results as given in patent US20160185837A1 (AstraZeneca / MedImmune, published 2016).
Like-named read-outs stand apart in the source and are kept apart here.

Columns and labels:
Assay in all cases: cell-based or functional assay
[1] = target: T1, rat GLP-1 receptor (rat, UniProt P32301 22-463)
T1 sequence (looked up): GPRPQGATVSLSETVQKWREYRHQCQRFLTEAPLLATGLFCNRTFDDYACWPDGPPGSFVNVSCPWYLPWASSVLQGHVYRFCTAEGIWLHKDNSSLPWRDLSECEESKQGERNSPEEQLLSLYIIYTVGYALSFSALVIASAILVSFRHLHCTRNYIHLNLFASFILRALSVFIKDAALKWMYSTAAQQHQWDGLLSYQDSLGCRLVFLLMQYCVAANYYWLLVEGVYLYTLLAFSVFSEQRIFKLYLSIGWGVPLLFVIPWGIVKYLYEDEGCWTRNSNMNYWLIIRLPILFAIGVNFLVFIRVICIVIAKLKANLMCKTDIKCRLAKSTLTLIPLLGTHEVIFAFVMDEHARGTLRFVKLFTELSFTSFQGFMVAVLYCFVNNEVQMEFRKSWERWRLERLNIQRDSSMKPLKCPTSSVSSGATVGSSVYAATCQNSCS

[2] = target: T2, mouse GIP receptor (mouse, UniProt Q0P543 19-460)
T2 sequence (looked up): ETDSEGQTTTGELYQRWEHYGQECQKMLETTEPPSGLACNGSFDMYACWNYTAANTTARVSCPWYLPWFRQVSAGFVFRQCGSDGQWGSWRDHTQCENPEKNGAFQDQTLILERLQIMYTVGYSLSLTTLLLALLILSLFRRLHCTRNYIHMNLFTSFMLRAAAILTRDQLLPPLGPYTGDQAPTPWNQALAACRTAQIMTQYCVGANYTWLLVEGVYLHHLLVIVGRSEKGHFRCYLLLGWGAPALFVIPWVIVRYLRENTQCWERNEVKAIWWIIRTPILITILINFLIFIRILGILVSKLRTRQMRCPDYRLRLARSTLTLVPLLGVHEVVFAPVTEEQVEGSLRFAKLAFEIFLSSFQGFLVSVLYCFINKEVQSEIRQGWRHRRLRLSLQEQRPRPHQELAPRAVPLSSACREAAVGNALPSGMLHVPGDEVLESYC

[3] = target: T3, mouse GLP-1 receptor (mouse, UniProt O35659 22-463)
T3 sequence (looked up): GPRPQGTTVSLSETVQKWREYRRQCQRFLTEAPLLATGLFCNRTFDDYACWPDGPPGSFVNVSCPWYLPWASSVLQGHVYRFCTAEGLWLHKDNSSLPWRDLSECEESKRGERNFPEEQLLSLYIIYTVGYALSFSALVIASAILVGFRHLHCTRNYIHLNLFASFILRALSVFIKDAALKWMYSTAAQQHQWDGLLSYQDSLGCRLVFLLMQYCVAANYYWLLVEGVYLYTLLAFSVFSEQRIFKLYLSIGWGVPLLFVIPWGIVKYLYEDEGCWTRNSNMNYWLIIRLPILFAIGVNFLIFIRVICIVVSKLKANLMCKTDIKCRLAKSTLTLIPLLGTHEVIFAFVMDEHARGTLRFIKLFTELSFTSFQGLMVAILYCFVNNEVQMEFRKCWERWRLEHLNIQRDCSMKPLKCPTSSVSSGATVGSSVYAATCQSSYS

[4] = target: T4, human GLP-1 receptor (human, UniProt P43220 24-463)
[5] = target: T5, human GIP receptor (human, UniProt P48546 22-466)
T5 sequence (looked up): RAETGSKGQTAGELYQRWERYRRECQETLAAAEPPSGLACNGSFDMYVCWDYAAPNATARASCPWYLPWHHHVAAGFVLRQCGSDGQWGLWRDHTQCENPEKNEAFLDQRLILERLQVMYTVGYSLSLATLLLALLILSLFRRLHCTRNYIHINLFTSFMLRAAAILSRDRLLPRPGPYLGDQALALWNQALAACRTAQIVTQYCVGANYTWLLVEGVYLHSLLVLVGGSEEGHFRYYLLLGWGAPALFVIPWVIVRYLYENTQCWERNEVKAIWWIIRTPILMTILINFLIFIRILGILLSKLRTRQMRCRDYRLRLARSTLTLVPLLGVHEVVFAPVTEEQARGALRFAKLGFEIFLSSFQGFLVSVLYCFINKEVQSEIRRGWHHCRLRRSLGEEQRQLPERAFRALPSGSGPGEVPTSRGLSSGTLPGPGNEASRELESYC

[6] = target: T1, rat GLP-1 receptor; remark: listed apart in the source
[7] = target: T2, mouse GIP receptor; remark: listed apart in the source
[8] = target: human glucagon receptor (human, UniProt P47871 26-477)
[9] = target: T3, mouse GLP-1 receptor; remark: listed apart in the source
[10] = target: T4, human GLP-1 receptor; remark: listed apart in the source
[11] = target: T6, rat GIP receptor (rat, UniProt P43219 19-455)
T6 sequence (looked up): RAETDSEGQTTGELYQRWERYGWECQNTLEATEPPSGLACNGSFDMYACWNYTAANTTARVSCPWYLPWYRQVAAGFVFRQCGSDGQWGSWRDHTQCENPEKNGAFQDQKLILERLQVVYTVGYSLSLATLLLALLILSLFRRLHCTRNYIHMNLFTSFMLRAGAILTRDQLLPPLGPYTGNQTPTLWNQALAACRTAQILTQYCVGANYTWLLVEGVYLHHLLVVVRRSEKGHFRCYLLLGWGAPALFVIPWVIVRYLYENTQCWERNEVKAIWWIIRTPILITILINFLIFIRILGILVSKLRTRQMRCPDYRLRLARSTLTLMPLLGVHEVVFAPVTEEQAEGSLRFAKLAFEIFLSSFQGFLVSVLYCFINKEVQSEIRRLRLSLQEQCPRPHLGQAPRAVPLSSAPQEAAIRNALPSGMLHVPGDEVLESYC

[12] = target: T5, human GIP receptor; remark: listed apart in the source
[13] = target: cynomolgus monkey GLP-1 receptor (cynomolgus monkey, UniProt F8V479 24-463)
[14] = target: cynomolgus monkey glucagon receptor (cynomolgus monkey)

B1: IP088 (Fc fusion)
chain: YSEGTFTSDYSKLLEEEAVRLFIEWLVKGPAAAGGSGSTASSGSGSATGGGGAATHTCPPCPAPEF
[1]
  cAMP EC50: 0.038 nM
[2]
  cAMP EC50: 137 nM
[3]
  cAMP EC50: 0.42 nM
[4]
  cAMP EC50: 0.222 nM
[5]
  cAMP EC50: 0.016 nM
[6]
  cAMP EC50: 0.033 nM
[7]
  cAMP EC50: 86 nM
[8]
  cAMP EC50: 460 nM
[9]
  cAMP EC50: 0.31 nM
[10]
  cAMP EC50: 0.076 nM
[11]
  cAMP EC50: 0.1 nM
[12]
  cAMP EC50: 0.0078 nM
[13]
  cAMP EC50, 4.2% cyno serum albumin: 0.19 nM
[14]
  cAMP EC50, 4.2% cyno serum albumin: > 1000 nM
